Measurements published in publication PMC3522052, “Association of HLA-DR1 with the allergic response to the major mugwort pollen allergen: molecular background” (BMC Immunology, 2012).

Assays:
[1] = molecular target: HLA-DRB1*01:01 molecules (human (endogenous in homozygous EBV cells)); test: ELISA
[2] = molecular target: HLA-DRB1*04:01 molecules (human (endogenous in homozygous EBV cells)); test: ELISA
HLA-DRB1*01:01 = molecular target: T1, HLA-DRB1*01:01 (Homo sapiens, UniProt P01903+P01911, A100R/D57E/F55L/F60I/F76Y/I96L/L162R/M171V/P40L/Q125E/R42F/V115G/Y59C); test: Peptide/MHC-binding assay, competitive ELISA against biotinylated HA306-318; details: for binding to DR1 molecules, in words: competition with HA306-318, stated for DR1 or DR4; for ratio of IC50 of Art v 1-peptides/HA306-318, HLA-DR1: relative binding activity, competitive ELISA, pH 6.0, 24 h at 37°C, two independent experiments
T1 construct: endogenous in cells
Procedure: (§1) HLA-DRB1*01:01 and -DRB1*04:01 molecules were purified from homozygous EBV cells by affinity chromatography using mAb L243 as described before. Peptide binding to HLA-DR molecules was assessed by competitive ELISA. Dilutions were prepared in 10 mM phosphate, 150 mM NaCl, […], 10 mM citrate (pH = 6.0). […] After 24 hours of incubation at 37°C, peptide/MHC-class II complexes were added to 96 well plates coated with L243 antibody and incubated at RT for 2 hours. Bound biotinylated peptides were detected by Streptavidin-alkaline phosphatase conjugate (GE healthcare, Saclay, France) and 4-methyl-umbelliferyl phosphate (Sigma-Aldrich, St. Quentin Fallavier, France) as substrate. Emitted fluorescence was measured at 450 nm upon excitation at 365 nm by a Gemini fluorometer (Molecular probes, St Grégoire, France). […] Two independent experiments were performed to evaluate competitive binding.

HLA-DRB1*04:01 = molecular target: T2, HLA-DRB1*04:01 (Homo sapiens, UniProt P01903+P01911, A100K/A169T/F76Y/I96L/K127E/L162R/M171V/N62H/P40V/Q125Y/R42H/S133A/S149N/S66Y/V115G/V209L/W38E); test: as above; details: for binding to DR4 molecules, in words: competition with HA306-318, stated for DR1 or DR4; for ratio of IC50 of Art v 1-peptides/HA306-318, HLA-DR4: relative binding activity, competitive ELISA, pH 6.0, 24 h at 37°C, two independent experiments
T2 construct: endogenous in cells
Procedure: as §1

[3] = tested on: Art v 1_25-36-specific TCL and TCC with HLA-DR1-expressing APC; type: cell-based, human
Procedure: (§2) TCL or TCC (5 × 10^4 cells) were stimulated for 3 days with irradiated (60 Gy) APC and peptides at an optimum concentration of 3 μM, if not indicated otherwise. Proliferation was assessed by ^3H-thymidine uptake within the last 16 hours of incubation.

[4] = tested on: Art v 1_25-36-specific TCL and TCC with HLA-DR4-expressing APC; type: cell-based, human
Procedure: as §2

[5] = text statement for both HLA molecules

Molecule | other [1] | other [2] | ratio of IC50 of Art v 1-peptides/HA306-318, HLA-DR1 (HLA-DRB1*01:01) | ratio of IC50 of Art v 1-peptides/HA306-318, HLA-DR4 (HLA-DRB1*04:01) | also measured
Art v 1_(22-33) (peptide) | 2020 | 756 |  |  | 
Art v 1_(25-36) (peptide) | 14 | 15 |  |  | 
Art v 1_(25-36) Ala-26 (peptide) | 16 | 3 |  |  | 
CDKKCIEWEKAQ [Art v 1_22-33] |  |  | 2016 | 756 | binding to DR1 molecules, in words (HLA-DRB1*01:01): weak; binding to DR4 molecules, in words (HLA-DRB1*04:01): weak
KAIEWEKAGHGA [Ala-26, mono-substituted peptide of Art v 1_25-36] |  |  | 16 | 3 | 
KCAEWEKAQHGA [Ala-27, mono-substituted peptide of Art v 1_25-36] |  |  | 2596 | >926 | 
KCIAWEKAQHGA [Ala-28, mono-substituted peptide of Art v 1_25-36] |  |  | 6 | 11 | 
KCIEWAKAQHGA [Ala-30, mono-substituted peptide of Art v 1_25-36] |  |  | 6 | 28 | 
KCIEWEAAQHGA [Ala-31, mono-substituted peptide of Art v 1_25-36] |  |  | 17 | 17 | 
KCIEWEKAQAGA [Ala-34, mono-substituted peptide of Art v 1_25-36] |  |  | 8 | 17 | 
KCIEWEKAQHAA [Ala-35, mono-substituted peptide of Art v 1_25-36] |  |  | 5 | 5 | 
KCIEWEKAQHGA [Art v 1_25-36] |  |  | 14 | 15 | median proliferation of TCC, DR1 [3]: 36,640 dpm; median proliferation of TCL, DR1 [3]: 31,630 dpm; TCC that did not respond to presentation by DR4 [4]: 18%; TCC that recognized the peptide presented by DR4 [4]: 82%; median proliferation of TCC, DR4 [4]: 24,125 dpm; median proliferation of TCL, DR4 [4]: 25,985 dpm; binding less than HA306-318, HLA-DR1 (HLA-DRB1*01:01; [5]): 15 fold; binding less than HA306-318, HLA-DR4 (HLA-DRB1*04:01; [5]): 15 fold
KCIEWEKGQHGA [Gly-32, mono-substituted peptide of Art v 1_25-36] |  |  | 63 | 149 | 
NKKCDKKCIEWE [Art v 1_19–30] |  |  | >55032 | >926 | binding to DR1 molecules, in words (HLA-DRB1*01:01): negligible; binding to DR4 molecules, in words (HLA-DRB1*04:01): negligible
KCIEWAKAQHGA [Art v 1_(25-36) Ala-30] | 6 | 28 |  |  | 
KCAEWEKAQHGA [Art v 1_(25-36) Ala-27] | 2600 |  |  |  | 
KCIEWEKAQAGA [Art v 1_(25-36) Ala-34] | 8 | 17 |  |  | 
KCIAWEKAQHGA [Art v 1_(25-36) Ala-28] | 6 | 11 |  |  | 
KCIEWEKGQHGA [Art v 1_(25-36) Gly-32] | 63 | 149 |  |  | 
KCIEWEAAQHGA [Art v 1_(25-36) Ala-31] | 17 | 17 |  |  | 
KCIEWEKAQHAA [Art v 1_(25-36) Ala-35] | 5 | 5 |  |  | 
